For 40 molecules, ELISA_avg results are on record in patent US20250026849A1 (ARCELLX, published 2025).

T1: CD123 (Homo sapiens (Human), UniProt P26951 19-305, limits assumed)
T1 construct: The CD123 construct used in the ELISA is not described; also called CD123-Signal
T1 sequence: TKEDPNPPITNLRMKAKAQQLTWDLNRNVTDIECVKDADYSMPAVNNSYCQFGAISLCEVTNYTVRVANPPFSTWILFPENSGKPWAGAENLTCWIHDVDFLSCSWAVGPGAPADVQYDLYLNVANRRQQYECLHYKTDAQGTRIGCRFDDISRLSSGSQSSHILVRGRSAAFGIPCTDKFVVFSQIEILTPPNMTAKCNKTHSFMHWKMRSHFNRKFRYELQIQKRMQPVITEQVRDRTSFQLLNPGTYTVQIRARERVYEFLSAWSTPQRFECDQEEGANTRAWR

B1: D domain of SEQ ID NO: 356 (designed binder)
chain: MGSWTEFYYRLEAIEDRLWALGGSEAELAAFEKEIAAFESELQAYKGKGNPEVEFLRVEAANIRDMLQAYRHN
B2: D domain of SEQ ID NO: 351 (designed binder)
chain: MGSWVEFWFRLEAIDSRLWALGGSEAELAAFEKEIAAFESELQAYKGKGNPEVEWLREEAAAIREDLQAYRHN
B3: D domain of SEQ ID NO: 405 (designed binder)
chain: MGSWDEFVDRLWAIEERLWALGGSEAELAAFEKEIAAFESELQAYKGKGNPEVEELRIQAAIIREALQAYRHN
B4: D domain of SEQ ID NO: 401 (designed binder)
chain: MGSWYEFYERLDAIEERLWALGGSEAELAAFEKEIAAFESELQAYKGKGNPEVEVLRDWAAWIREDLQAYRHN
B5: D domain of SEQ ID NO: 397 (designed binder)
chain: MGSWVEFDQRLDAIYERLYALGGSEAELAAFEKEIAAFESELQAYKGKGNPEVEWLRDEAAEIREHLQAYRHN
B6: D domain of SEQ ID NO: 352 (designed binder)
chain: MGSWVEFWQRLEAIESRLWALGGSEAELAAFEKEIAAFESELQAYKGKGNPEVEFLREEAAEIRWELQAYRHN
B7: D domain of SEQ ID NO: 365 (designed binder)
chain: MGSWVEFHDRLEAIEDRLLALGGSEAELAAFEKEIAAFESELQAYKGKGNPEVEDLREYAAGIRWFLQAYRHN
B8: D domain of SEQ ID NO: 415 (designed binder)
chain: MGSWYEFEDRLWAIDNRLWALGGSEAELAAFEKEIAAFESELQAYKGKGNPEVEELRVHAADIRDDLQAYRHN
B9: D domain of SEQ ID NO: 355 (designed binder)
chain: MGSWYEFETRLEAIYDRLWALGGSEAELAAFEKEIAAFESELQAYKGKGNPEVELLRVEAAEIREDLQAYRHN
B10: D domain of SEQ ID NO: 354 (designed binder)
chain: MGSWSEFITRLEAIDDRLWALGGSEAELAAFEKEIAAFESELQAYKGKGNPEVEILREEAAEIRQHLQAYRHN
B11: D domain of SEQ ID NO: 363 (designed binder)
chain: MGSWIEFYDRLEAIYDRLDALGGSEAELAAFEKEIAAFESELQAYKGKGNPEVEWLREDAAFIRSWLQAYRHN
B12: D domain of SEQ ID NO: 403 (designed binder)
chain: MGSWYEFWDRLDALEDRLWALGGSEAELAAFEKEIAAFESELQAYKGKGNPEVEYLRDSAAFIREELQAYRHN
B13: D domain of SEQ ID NO: 400 (designed binder)
chain: MGSWVEFYSRLDAIEDRLWALGGSEAELAAFEKEIAAFESELQAYKGKGNPEVEWLRIAAASIREDLQAYRHN
B14: D domain of SEQ ID NO: 353 (designed binder)
chain: MGSWSEFWQRLEAIEDRLWALGGSEAELAAFEKEIAAFESELQAYKGKGNPEVEWLRENAAMIRDELQAYRHN
B15: D domain of SEQ ID NO: 350 (designed binder)
chain: MGSWAEFEDRLWAIEDRLWALGGSEAELAAFEKEIAAFESELQAYKGKGNPEVEYLREEAAAIRFELQAYRHN
B16: D domain of SEQ ID NO: 404 (designed binder)
chain: MGSWMEFVDRLDAIESRLWALGGSEAELAAFEKEIAAFESELQAYKGKGNPEVEWLRIEAAFIREELQAYRHN
B17: D domain of SEQ ID NO: 414 (designed binder)
chain: MGSWFEFHDRLWAIDERLWALGGSEAELAAFEKEIAAFESELQAYKGKGNPEVEILREEAADIRLDLQAYRHN
B18: D domain of SEQ ID NO: 349 (designed binder)
chain: MGSWTEFHDRLEAIDDRLWALGGSEAELAAFEKEIAAFESELQAYKGKGNPEVEYLREEAAQIRWELQAYRHN
B19: D domain of SEQ ID NO: 430 (designed binder)
chain: MGSWMEFEERLWAIDSRLWALGGSEAELAAFEKEIAAFESELQAYKGKGNPEVEWLRSEAAWIRMELQAYRHN
B20: D domain of SEQ ID NO: 396 (designed binder)
chain: MGSWVEFDMRLSAIWERLIALGGSEAELAAFEKEIAAFESELQAYKGKGNPEVEWLREDAAEIREFLQAYRHN
B21: D domain of SEQ ID NO: 402 (designed binder)
chain: MGSWFEFDDRLWAIENRLWALGGSEAELAAFEKEIAAFESELQAYKGKGNPEVEVLRDNAAWIREILQAYRHN
B22: D domain of SEQ ID NO: 416 (designed binder)
chain: MGSWFEFQDRLWAIDNRLWALGGSEAELAAFEKEIAAFESELQAYKGKGNPEVEELRDHAAMIRWELQAYRHN
B23: D domain of SEQ ID NO: 361 (designed binder)
chain: MGSWVEFHERLEAIEDRLMALGGSEAELAAFEKEIAAFESELQAYKGKGNPEVEYLREDAAFIRQLLQAYRHN
B24: D domain of SEQ ID NO: 413 (designed binder)
chain: MGSWFEFEDRLEAIYQRLDALGGSEAELAAFEKEIAAFESELQAYKGKGNPEVEWLRDEAAWIRSDLQAYRHN
B25: D domain of SEQ ID NO: 362 (designed binder)
chain: MGSWVEFHDRLEAIEDRLYALGGSEAELAAFEKEIAAFESELQAYKGKGNPEVEWLREDAAYIRSILQAYRHN
B26: D domain of SEQ ID NO: 412 (designed binder)
chain: MGSWFEFWDRLEAIWERLDALGGSEAELAAFEKEIAAFESELQAYKGKGNPEVEELRREAAIIREDLQAYRHN
B27: D domain of SEQ ID NO: 364 (designed binder)
chain: MGSWVEFDQRLEAIYDRLYALGGSEAELAAFEKEIAAFESELQAYKGKGNPEVEWLREDAAQIRKWLQAYRHN
B28: D domain of SEQ ID NO: 442 (designed binder)
chain: MGSWVEFHMRLDAIYERLDALGGSEAELAAFEKEIAAFESELQAYKGKGNPEVEWLRTAAANIRVELQAYRHN
B29: D domain of SEQ ID NO: 437 (designed binder)
chain: MGSWIEFNMRLDAIYERLVALGGSEAELAAFEKEIAAFESELQAYKGKGNPEVEWLRKVAANIRLELQAYRHN
B30: D domain of SEQ ID NO: 358 (designed binder)
chain: MGSWTEFSIRLEAIYDRLVALGGSEAELAAFEKEIAAFESELQAYKGKGNPEVEVLRTYAANIRHELQAYRHN
B31: D domain of SEQ ID NO: 436 (designed binder)
chain: MGSWSEFNMRLDAIYERLTALGGSEAELAAFEKEIAAFESELQAYKGKGNPEVEWLRHSAALIRLELQAYRHN
B32: D domain of SEQ ID NO: 440 (designed binder)
chain: MGSWTEFYVRLDAIYERLDALGGSEAELAAFEKEIAAFESELQAYKGKGNPEVEWLRMVAANIRTELQAYRHN
B33: D domain of SEQ ID NO: 443 (designed binder)
chain: MGSWYEFAIRLDAIYERLHALGGSEAELAAFEKEIAAFESELQAYKGKGNPEVEYLRVWAANIRTELQAYRHN
B34: D domain of SEQ ID NO: 439 (designed binder)
chain: MGSWYEFAKRLDAIYERLVALGGSEAELAAFEKEIAAFESELQAYKGKGNPEVEWLRSSAANIREELQAYRHN
B35: D domain of SEQ ID NO: 357 (designed binder)
chain: MGSWYEFVIRLEAIEDRLWALGGSEAELAAFEKEIAAFESELQAYKGKGNPEVEVLRWYAADIRHELQAYRHN
B36: D domain of SEQ ID NO: 438 (designed binder)
chain: MGSWYEFHHRLDAIYERLLALGGSEAELAAFEKEIAAFESELQAYKGKGNPEVEWLRSSAANIRKELQAYRHN
B37: D domain of SEQ ID NO: 359 (designed binder)
chain: MGSWTEFSIRLEAIYDRLVALGGSEAELAAFEKEIAAFESELQAYKGKGNPEVEVLRTYAAFIRHELQAYRHN
B38: D domain of SEQ ID NO: 435 (designed binder)
chain: MGSWSEFNMRLDAIYERLTALGGSEAELAAFEKEIAAFESELQAYKGKGNPEVEWLRHSAARIRLELQAYRHN
B39: D domain of SEQ ID NO: 444 (designed binder)
chain: MGSWNEFVIRLDAIYERLLALGGSEAELAAFEKEIAAFESELQAYKGKGNPEVEYLRMAAANIRMELQAYRHN
B40: D domain of SEQ ID NO: 441 (designed binder)
chain: MGSWVEFYTRLDAIYGRLDALGGSEAELAAFEKEIAAFESELQAYKGKGNPEVEWLRQVAANIRMELQAYRHN

For this experiment, the target named is T1, CD123. The experiment in a line: ELISA. More on the design: unit not given here. (In general: ELISA stands for enzyme-linked immunosorbent assay.)
For the molecule B1, the ELISA_avg was found to be 7.5.

In turn, B2 registered an ELISA_avg of 3.2.

For the molecule B3, the ELISA_avg was found to be 6.

For the molecule B4, the ELISA_avg was found to be 8.4.

In turn, B5 returned an ELISA_avg of 10.5.

In the case of B6, the ELISA_avg was 7.7.

With B7, the ELISA_avg was 3.3.

Consider B8, for which the ELISA_avg amounted to 4.9.

B9 displayed an ELISA_avg of 3.2.

For the molecule B10, the ELISA_avg was determined as 3.3.

Consider B11, for which the ELISA_avg was found to be 7.5.

B12 came in with an ELISA_avg of 9.7.

For the molecule B13, the ELISA_avg amounted to 9.4.

Consider B14, for which the ELISA_avg was determined as 4.7.

With B15, the ELISA_avg was 6.2.

In turn, B16 came in with an ELISA_avg of 5.8.

Take B17: the ELISA_avg was determined as 3.5.

Consider B18, for which the ELISA_avg came out at 5.8.

Turning to B19, the ELISA_avg was found to be 3.2.

B20: the ELISA_avg was determined as 3.3.

In turn, B21 displayed an ELISA_avg of 4.2.

Take B22: the ELISA_avg stood at 3.2.

For B23, the ELISA_avg stood at 3.7.

Molecule B24 returned an ELISA_avg of 5.5.

As to B25, the ELISA_avg was 4.6.

In turn, B26 returned an ELISA_avg of 10.3.

In turn, B27 yielded an ELISA_avg of 5.1.

B28 gave an ELISA_avg of 9.1.

B29 gave an ELISA_avg of 11.4.

B30 showed an ELISA_avg of 11.9.

For the molecule B31, the ELISA_avg was found to be 11.4.

As for B32, the ELISA_avg worked out at 16.

Molecule B33 gave an ELISA_avg of 25.5.

For B34, the ELISA_avg was 15.3.

As to B35, the ELISA_avg stood at 6.4.

B36 registered an ELISA_avg of 11.9.

The molecule B37 displayed an ELISA_avg of 10.2.

The molecule B38 returned an ELISA_avg of 13.7.

With B39, the ELISA_avg was found to be 16.6.

B40 yielded an ELISA_avg of 14.4.
